Data as given in publication PMC10976570.

Target: wild-type PlaF (phospholipase A1 PlaF, PA2949) from Pseudomonas aeruginosa (Pseudomonas aeruginosa)
Assay: cross-linking

## wild-type PlaF (phospholipase A1 PlaF, PA2949) from Pseudomonas aeruginosa (enzyme)
  more dimer in the C10-treated sample than in the untreated one: 70%
  stoichiometry N: 2
